The target of experiment [1] is Crotalus durissus terrificus venom. The experiment can be described thus: ELISA, C.d.t. venom-coated wells; dilution 1:62,500.
The target is the same in experiment [2]. As to the kind of experiment: ELISA, C.d.t. venom-coated wells; dilution 1:125. Background: ELISA stands for enzyme-linked immunosorbent assay.
Experiment [3] shares this target. The experiment can be described thus: ELISA, C.d.t. venom-coated wells; dilution 1:5.
Experiment [4] has the same target. The experiment can be described thus: ELISA, wells coated with 5 µg/ml C.d.t. venom; dilution 1:25.
Experiment [5] has the same target. The experiment can be described thus: ELISA, C.d.t. venom-coated wells; dilution 1:625.
Experiment [6] has the same target. The experiment can be described thus: ELISA, C.d.t. venom-coated wells; dilution 1:3125.
The target is the same in experiment [7]. As to the kind of experiment: ELISA, C.d.t. venom-coated wells; dilution 1:312,500.
Experiment [8] has the same target. The experiment can be described thus: ELISA, wells coated with 5 µg/ml C.d.t. venom; dilution 1:625.
The target is the same in experiment [9]. As to the kind of experiment: ELISA, wells coated with 5 µg/ml C.d.t. venom; dilution 1:125.
Experiment [10] shares this target. The experiment can be described thus: ELISA, wells coated with 5 µg/ml C.d.t. venom; dilution 1:3125.
Experiment [11] has the same target. The experiment can be described thus: ELISA, C.d.t. venom-coated wells; dilution 1:25.
Experiment [12] shares this target. The experiment can be described thus: ELISA, wells coated with 5 µg/ml C.d.t. venom; undiluted.
For experiment [13] the target is unchanged. The experiment can be described thus: ELISA, wells coated with 5 µg/ml C.d.t. venom; dilution 1:5.

On to preimmune IgY (antibody), for which the absorbance (412 nm filter) in [1] was found to be 0.001 OD; in experiment [7], 0.01 OD. The absorbance (ELISA as in Example 4) in [2] was less than 0 OD; in experiment [3], less than 0 OD; in experiment [4], 0 OD; in experiment [5], less than 0 OD; in experiment [6], less than 0 OD; in [8], 0 OD. The absorbance (ELISA as in Example 4) in [9] was 0.003 OD; in experiment [10], 0.002 OD; in [11] it was 0.016 OD; in [12] it was 0.003 OD; in experiment [13], less than 0 OD.

These data come from patent US20030219457A1.
